For one assay, the target named is T1, RasGRF1 (Mus musculus, UniProt P27671).
T1 construct: In vitro translated full-length RasGRF1 and AU1-tagged NR2B fragments were coimmunopecipitated with AU1 antibody; made in house; host or cells: cell-free in vitro translation (TNT system, [35S]methionine)
T1 sequence (P27671 1-1262): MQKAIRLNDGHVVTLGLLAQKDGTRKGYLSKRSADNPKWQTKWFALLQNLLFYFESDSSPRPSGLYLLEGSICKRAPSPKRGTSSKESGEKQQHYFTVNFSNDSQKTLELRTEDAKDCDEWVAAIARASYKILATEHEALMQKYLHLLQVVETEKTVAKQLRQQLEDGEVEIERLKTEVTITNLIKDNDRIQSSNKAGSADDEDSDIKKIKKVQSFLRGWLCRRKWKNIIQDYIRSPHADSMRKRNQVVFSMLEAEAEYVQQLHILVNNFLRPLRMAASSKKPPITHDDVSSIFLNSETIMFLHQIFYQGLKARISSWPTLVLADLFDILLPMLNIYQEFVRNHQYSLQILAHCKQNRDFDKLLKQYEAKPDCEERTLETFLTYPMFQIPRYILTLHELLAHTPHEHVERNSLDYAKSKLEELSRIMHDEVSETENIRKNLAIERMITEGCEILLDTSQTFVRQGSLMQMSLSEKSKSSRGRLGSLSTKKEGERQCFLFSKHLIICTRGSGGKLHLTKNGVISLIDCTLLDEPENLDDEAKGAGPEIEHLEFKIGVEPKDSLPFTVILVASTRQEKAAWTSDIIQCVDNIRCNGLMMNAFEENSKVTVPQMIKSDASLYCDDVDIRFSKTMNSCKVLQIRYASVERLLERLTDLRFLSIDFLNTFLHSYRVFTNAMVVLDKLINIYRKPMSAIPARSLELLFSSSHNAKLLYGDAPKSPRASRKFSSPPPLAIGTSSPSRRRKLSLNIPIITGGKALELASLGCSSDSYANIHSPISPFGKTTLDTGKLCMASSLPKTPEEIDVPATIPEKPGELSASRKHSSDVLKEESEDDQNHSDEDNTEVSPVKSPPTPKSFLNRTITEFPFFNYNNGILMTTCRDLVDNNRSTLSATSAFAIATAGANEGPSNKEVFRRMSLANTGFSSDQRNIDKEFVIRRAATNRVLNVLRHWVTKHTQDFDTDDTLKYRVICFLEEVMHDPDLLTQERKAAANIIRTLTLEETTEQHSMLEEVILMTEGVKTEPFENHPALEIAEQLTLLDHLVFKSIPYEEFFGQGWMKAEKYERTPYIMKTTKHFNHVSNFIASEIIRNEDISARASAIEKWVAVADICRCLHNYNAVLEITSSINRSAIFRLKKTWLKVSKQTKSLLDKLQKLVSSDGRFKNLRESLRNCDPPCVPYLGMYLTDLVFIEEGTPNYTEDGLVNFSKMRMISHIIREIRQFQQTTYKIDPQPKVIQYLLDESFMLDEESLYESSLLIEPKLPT
Nature of the assay: pull-down / in vitro binding of NR2B fragments with in vitro translated RasGRF1. An excerpt:
For in vitro translation, fragments of rat NR2B and rat RasGRF1 were made by PCR with 5′-primers containing AU1- and HA-tag encoding sequences; amplified sequences were subcloned into pcDNA3.1. For 293T transfection, the following cDNAs were used: mouse RasGRF1 in pcDNA3, GFP-rat NR2B, GFP rat NR2A in pcDNA1.1, and rat NR1 in pEGFP-C1 (Clontech). EGFP fusion constructs were made by subcloning cDNA fragments encoding different portions of NR2B and RasGRF1 into pEGFP-C1 (Clontech). EGFP fusion constructs were transferred from pEGFP into pSinRep5 and used for preparation of the Sindbis pseudovirus gene transfer system according to the manufacturer's protocol (Invitrogen, Carlsbad, Calif.).
Mouse RasGRF1 in pcDNA3 (Martegani, E., et al. (1992) EMBO J. 11, 2151-2157) was translated in vitro using the TNT system (Invitrogen) and [^35S]methionine. […]
For in vitro binding experiments, equimolar amounts of in vitro translated ^35S-labeled proteins (calculated from radioactivity of the excised protein band and cysteine content in the specific fragment) were incubated with a 3-fold molar excess of translated RasGRF1 for 30 min at 30° C., diluted with RIPA buffer, and immunoprecipitated with anti-HA-agarose (Santa Cruz). […]

For another assay, the system named is NMDA receptor. Nature of the assay: evoked NMDA EPSCs in organotypic cultures of hippocampal slices. It is filed as cell-based, rat. The protocol:
Organotypic cultures of hippocampal slices were prepared as described (Becq, H., et al. (1999) J. Neurosci. Res. 58, 553-566) according to modified technique of Stoppini et al. (J. Neurosci. Methods 37, 173-182 (1991)). Hippocampal slices (400 μm) were cut from postnatal 7-day-old rat brains and incubated in culture medium in 5% CO2. Infections were performed on the 6th day of slice incubation by local pressure injection of virus via a patch pipette (tip diameter ˜1 μm) into the CA1 region of the hippocampus.
For electrophysiological recordings, slices were placed in a recording chamber and perfused with ACSF including in mM: 119 NaCl, 2.5 KCl, 2 CaCl2, 2 MgCl2, 26 NaHCO3, 1 NaH2PO4, 11 glucose, 0.01 bicuculline, 0.01 CNQX, 0.002 2-chloroadenosine (pH 7.4), in 5% CO2/95% O2. Synaptic responses were evoked by bipolar electrode with monophasic voltage pulses (1-10 V, 200 μs). The stimulating electrodes were placed over Schaeffer collateral fibers. NMDA evoked EPSCs were recorded at different holding potentials before, during, and after ifenprodil application in order to measure the I-V relationship. For analysis, at least 5 NMDA-evoked EPSCs were averaged for every experimental condition.

The source of these data is patent US7425614B2, “Neuroprotective therapeutics preventing ERK/MAPK activation through the NMDA receptor” (Children's Medical Center Corporation, priority 2003, dated 2008).

B1: NR2B-BD: peptide of amino acids 886-1310 of the NR2B C-terminal domain that binds RasGRF1; used as NusA or EGFP fusion (protein)
chain: SPTATMNNTHSNILRLLRTAKNMANLSGVNGSPQSALDFIRRESSVYDISEHRRSFTHSDCKSYNNPPCEENLFSDYISEVERTFGNLQLKDSNVYQDHYHHHHRPHSIGSTSSIDGLYDCDNPPFTTQPRSISKKPLDIGLPSSKHSQLSDLYGKFSFKSDRYSGHDDLIRSDVSDISTHTVTYGNIEGNAAKRRKQQYKDSLKKRPASAKSRREFDEIELAYRRRPPRSPDHKRYFRDKEGLRDFYLDQFRTKENSPHWEHVDLTDIYKERSDDFKRDSVSGGGPCTNRSHLKHGTGEKHGVVGGVPAPWEKNLTNVDWEDRSGGNFCRSCPSKLHNYSSTVAGQNSGRQACIRCEACKKAGNLYDISKDNSLQELDQPAAPVAVTSNASSTKYPQSPTNSKAQKKNRNKLRRQHSYDTFVDL
modifications: left off: small tags and cut ends
notes: used as NusA or EGFP fusion
In the case of B1, in the assay with RasGRF1, the “binding to RasGRF1 in vitro” value is given as “bound”. In addition, in the assay with NMDA receptor, the “portion of the ifenprodil-sensitive component of the evoked EPSCs” value is on record as “Neither of the expressed peptides decreased”.
